From the supplement of paper PMC5998384

How the values were obtained:
HeLa Kyoto [1] = assay: solubility change mitosis vs G1/S (difference of NP-40 vs SDS log2 ratios) (log2 ratio difference); higher = more soluble in mitosis
HeLa Kyoto [2] = assay: solubility in G1/S (NP-40 vs SDS abundance) (log2 ratio); higher = more soluble; settings: cell cycle stage: G1/S
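For solubility change mitosis vs G1/S (difference of NP-40 vs SDS log2 ratios) in this document: synchronized HeLa Kyoto cells (double thymidine block for G1/S, nocodazole release for mitosis), protein amounts in NP-40 versus SDS lysates quantified by mass spectrometry, three biological replicates.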
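For solubility in G1/S (NP-40 vs SDS abundance) in this document: HeLa Kyoto cells arrested at G1/S by double thymidine block, proteins quantified by TMT10plex mass spectrometry in mild NP-40 versus SDS extracts, three biological replicates.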

| Sequence | solubility change mitosis (log2) (HeLa Kyoto [1]) | solubility in G1/S (log2) (HeLa Kyoto [2]) |
| --- | --- | --- |
| MKQLPAATVRLLSSSQIITSVVSVVKELIENSLDAGATSVDVKLENYGFDKIEVRDNGEGIKAVDAPVMAMKYYTSKINSHEDLENLTTYGFRGEALGSICCIAEVLITTRTAADNFSTQYVLDGSGHILSQKPSHLGQGTTVTALRLFKNLPVRKQFYSTAKKCKDEIKKIQDLLMSFGILKPDLRIVFVHNKAVIWQKSRVSDHKMALMSVLGTAVMNNMESFQYHSEESQIYLSGFLPKCDADHSFTSLSTPERSFIFINSRPVHQKDILKLIRHHYNLKCLKESTRLYPVFFLKIDVPTADVDVNLTPDKSQVLLQNKESVLIALENLMTTCYGPLPSTNSYENNKTDVSAADIVLSKTAETDVLFNKVESSGKNYSNVDTSVIPFQNDMHNDESGKNTDDCLNHQISIGDFGYGHCSSEISNIDKNTKNAFQDISMSNVSWENSQTEYSKTCFISSVKHTQSENGNKDHIDESGENEEEAGLENSSEISADEWSRGNILKNSVGENIEPVKILVPEKSLPCKVSNNNYPIPEQMNLNEDSCNKKSNVIDNKSGKVTAYDLLSNRVIKKPMSASALFVQDHRPQFLIENPKTSLEDATLQIEELWKTLSEEEKLKYEEKATKDLERYNSQMKRAIEQESQMSLKDGRKKIKPTSAWNLAQKHKLKTSLSNQPKLDELLQSQIEKRRSQNIKMVQIPFSMKNLKINFKKQNKVDLEEKDEPCLIHNLRFPDAWLMTSKTEVMLLNPYRVEEALLFKRLLENHKLPAEPLEKPIMLTESLFNGSHYLDVLYKMTADDQRYSGSTYLSDPRLTANGFKIKLIPGVSITENYLEIEGMANCLPFYGVADLKEILNAILNRNAKEVYECRPRKVISYLEGEAVRLSRQLPMYLSKEDIQDIIYRMKHQFGNEIKECVHGRPFFHHLTYLPETT [PMS1] | -0.108 | -0.0908 |
| MLARALLLCAVLALSHTANPCCSHPCQNRGVCMSVGFDQYKCDCTRTGFYGENCSTPEFLTRIKLFLKPTPNTVHYILTHFKGFWNVVNNIPFLRNAIMSYVLTSRSHLIDSPPTYNADYGYKSWEAFSNLSYYTRALPPVPDDCPTPLGVKGKKQLPDSNEIVEKLLLRRKFIPDPQGSNMMFAFFAQHFTHQFFKTDHKRGPAFTNGLGHGVDLNHIYGETLARQRKLRLFKDGKMKYQIIDGEMYPPTVKDTQAEMIYPPQVPEHLRFAVGQEVFGLVPGLMMYATIWLREHNRVCDVLKQEHPEWGDEQLFQTSRLILIGETIKIVIEDYVQHLSGYHFKLKFDPELLFNKQFQYQNRIAAEFNTLYHWHPLLPDTFQIHDQKYNYQQFIYNNSILLEHGITQFVESFTRQIAGRVAGGRNVPPAVQKVSQASIDQSRQMKYQSFNEYRKRFMLKPYESFEELTGEKEMSAELEALYGDIDAVELYPALLVEKPRPDAIFGETMVEVGAPFSLKGLMGNVICSPAYWKPSTFGGEVGFQIINTASIQSLICNNVKGCPFTSFSVPDPELIKTVTINASSSRSGLDDINPTVLLKERSTEL [PTGS2] | -0.117 | 0.069 |
| MLGQQQQQLYSSAALLTGERSRLLTCYVQDYLECVESLPHDMQRNVSVLRELDNKYQETLKEIDDVYEKYKKEDDLNQKKRLQQLLQRALINSQELGDEKIQIVTQMLELVENRARQMELHSQCFQDPAESERASDKAKMDSSQPERSSRRPRRQRTSESRDLCHMANGIEDCDDQPPKEKKSKSAKKKKRSKAKQEREASPVEFAIDPNEPTYCLCNQVSYGEMIGCDNEQCPIEWFHFSCVSLTYKPKGKWYCPKCRGDNEKTMDKSTEKTKKDRRSR [ING2] | 0.625 | -0.404 |
| MLQSLAGSSCVRLVERHRSAWCFGFLVLGYLLYLVFGAVVFSSVELPYEDLLRQELRKLKRRFLEEHECLSEQQLEQFLGRVLEASNYGVSVLSNASGNWNWDFTSALFFASTVLSTTGYGHTVPLSDGGKAFCIIYSVIGIPFTLLFLTAVVQRITVHVTRRPVLYFHIRWGFSKQVVAIVHAVLLGFVTVSCFFFIPAAVFSVLEDDWNFLESFYFCFISLSTIGLGDYVPGEGYNQKFRELYKIGITCYLLLGLIAMLVVLETFCELHELKKFRKMFYVKKDKDEDQVHIIEHDQLSFSSITDQAAGMKEDQKQNEPFVATQSSACVDGPANH [KCNK1] | -0.0475 | -0.169 |
| MLRLLASGCARGPGPGVGARPAAGLFHPGRRQSRQASDAPRNQPPSPEFVARPVGVCSMMRLPVQTSPEGLDAAFIGVPLDTGTSNRPGARFGPRRIREESVMLGTVNPSTGALPFQSLMVADLGDVNVNLYNLQDSCRRIQEAYEKIVAAGCIPLTLGGDHTITYPILQAMAKKHGPVGLLHVDAHTDTTDKALGEKLYHGAPFRRCVDEGLLDCKRVVQIGIRGSSTTLDPYRYNRSQGFRVVLAEDCWMKSLVPLMGEVRQQMGGKPIYISFDIDALDPAYAPGTGTPEIAGLTPSQALEIIRGCQGLNVMGCDLVEVSPPYDLSGNTALLAANLLFEMLCALPKVTTV [AGMAT] | 0.0673 | 0.243 |
| MLRLQMTDGHISCTAVEFSYMSKISLNTPPGTKVKLSGIVDIKNGFLLLNDSNTTVLGGEVEHLIEKWELQRSLSKHNRSNIGTEGGPPPFVPFGQKCVSHVQVDSRELDRRKTLQVTMPVKPTNDNDEFEKQRTAAIAEVAKSKETKTFGGGGGGARSNLNMNAAGNRNREVLQKEKSTKSEGKHEGVYRELVDEKALKHITEMGFSKEASRQALMDNGNNLEAALNVLLTSNKQKPVMGPPLRGRGKGRGRIRSEDEEDLGNARPSAPSTLFDFLESKMGTLNVEEPKSQPQQLHQGQYRSSNTEQNGVKDNNHLRHPPRNDTRQPRNEKPPRFQRDSQNSKSVLEGSGLPRNRGSERPSTSSVSEVWAEDRIKCDRPYSRYDRTKDTSYPLGSQHSDGAFKKRDNSMQSRSGKGPSFAEAKENPLPQGSVDYNNQKRGKRESQTSIPDYFYDRKSQTINNEAFSGIKIEKHFNVNTDYQNPVRSNSFIGVPNGEVEMPLKGRRIGPIKPAGPVTAVPCDDKIFYNSGPKRRSGPIKPEKILESSIPMEYAKMWKPGDECFALYWEDNKFYRAEVEALHSSGMTAVVKFIDYGNYEEVLLSNIKPIQTEAWEEEGTYDQTLEFRRGGDGQPRRSTRPTQQFYQPPRARN [TDRD3] | 0.149 | -0.658 |
| MLRRPAPALAPAARLLLAGLLCGGGVWAARVNKHKPWLEPTYHGIVTENDNTVLLDPPLIALDKDAPLRFAESFEVTVTKEGEICGFKIHGQNVPFDAVVVDKSTGEGVIRSKEKLDCELQKDYSFTIQAYDCGKGPDGTNVKKSHKATVHIQVNDVNEYAPVFKEKSYKATVIEGKQYDSILRVEAVDADCSPQFSQICSYEIITPDVPFTVDKDGYIKNTEKLNYGKEHQYKLTVTAYDCGKKRATEDVLVKISIKPTCTPGWQGWNNRIEYEPGTGALAVFPNIHLETCDEPVASVQATVELETSHIGKGCDRDTYSEKSLHRLCGAAAGTAELLPSPSGSLNWTMGLPTDNGHDSDQVFEFNGTQAVRIPDGVVSVSPKEPFTISVWMRHGPFGRKKETILCSSDKTDMNRHHYSLYVHGCRLIFLFRQDPSEEKKYRPAEFHWKLNQVCDEEWHHYVLNVEFPSVTLYVDGTSHEPFSVTEDYPLHPSKIETQLVVGACWQEFSGVENDNETEPVTVASAGGDLHMTQFFRGNLAGLTLRSGKLADKKVIDCLYTCKEGLDLQVLEDSGRGVQIQAHPSQLVLTLEGEDLGELDKAMQHISYLNSRQFPTPGIRRLKITSTIKCFNEATCISVPPVDGYVMVLQPEEPKISLSGVHHFARAASEFESSEGVFLFPELRIISTITREVEPEGDGAEDPTVQESLVSEEIVHDLDTCEVTVEGEELNHEQESLEVDMARLQQKGIEVSSSELGMTFTGVDTMASYEEVLHLLRYRNWHARSLLDRKFKLICSELNGRYISNEFKVEVNVIHTANPMEHANHMAAQPQFVHPEHRSFVDLSGHNLANPHPFAVVPSTATVVIVVCVSFLVFMIILGVFRIRAAHRRTMRDQDTGKENEMDWDDSALTITVNPMETYEDQHSSEEEEEEEEEEESEDGEEEDDITSAESESSEEEEGEQGDPQNATRQQQLEWDDSTLSY [CLSTN1] | -0.189 | -0.0306 |
| MMADEEEEVKPILQKLQELVDQLYSFRDCYFETHSVEDAGRKQQDVQKEMEKTLQQMEEVVGSVQGKAQVLMLTGKALNVTPDYSPKAEELLSKAVKLEPELVEAWNQLGEVYWKKGDVAAAHTCFSGALTHCRNKVSLQNLSMVLRQLRTDTEDEHSHHVMDSVRQAKLAVQMDVHDGRSWYILGNSYLSLYFSTGQNPKISQQALSAYAQAEKVDRKASSNPDLHLNRATLHKYEESYGEALEGFSRAAALDPAWPEPRQREQQLLEFLDRLTSLLESKGKVKTKKLQSMLGSLRPAHLGPCSDGHYQSASGQKVTLELKPLSTLQPGVNSGAVILGKVVFSLTTEEKVPFTFGLVDSDGPCYAVMVYNIVQSWGVLIGDSVAIPEPNLRLHRIQHKGKDYSFSSVRVETPLLLVVNGKPQGSSSQAVATVASRPQCE [TTC5] | 0.145 | 0.132 |
| MMAQSNMFTVADVLSQDELRKKLYQTFKDRGILDTLKTQLRNQLIHELMHPVLSGELQPRSISVEGSSLLIGASNSLVADHLQRCGYEYSLSVFFPESGLAKEKVFTMQDLLQLIKINPTSSLYKSLVSGSDKENQKGFLMHFLKELAEYHQAKESCNMETQTSSTFNRDSLAEKLQLIDDQFADAYPQRIKFESLEIKLNEYKREIEEQLRAEMCQKLKFFKDTEIAKIKMEAKKKYEKELTMFQNDFEKACQAKSEALVLREKSTLERIHKHQEIETKEIYAQRQLLLKDMDLLRGREAELKQRVEAFELNQKLQEEKHKSITEALRRQEQNIKSFEETYDRKLKNELLKYQLELKDDYIIRTNRLIEDERKNKEKAVHLQEELIAINSKKEELNQSVNRVKELELELESVKAQSLAITKQNHMLNEKVKEMSDYSLLKEEKLELLAQNKLLKQQLEESRNENLRLLNRLAQPAPELAVFQKELRKAEKAIVVEHEEFESCRQALHKQLQDEIEHSAQLKAQILGYKASVKSLTTQVADLKLQLKQTQTALENEVYCNPKQSVIDRSVNGLINGNVVPCNGEISGDFLNNPFKQENVLARMVASRITNYPTAWVEGSSPDSDLEFVANTKARVKELQQEAERLEKAFRSYHRRVIKNSAKSPLAAKSPPSLHLLEAFKNITSSSPERHIFGEDRVVSEQPQVGTLEERNDVVEALTGSAASRLRGGTSSRRLSSTPLPKAKRSLESEMYLEGLGRSHIASPSPCPDRMPLPSPTESRHSLSIPPVSSPPEQKVGLYRRQTELQDKSEFSDVDKLAFKDNEEFESSFESAGNMPRQLEMGGLSPAGDMSHVDAAAAAVPLSYQHPSVDQKQIEEQKEEEKIREQQVKERRQREERRQSNLQEVLERERRELEKLYQERKMIEESLKIKIKKELEMENELEMSNQEIKDKSAHSENPLEKYMKIIQQEQDQESADKSSKKMVQEGSLVDTLQSSDKVESLTGFSHEELDDSW [OFD1] | 0.252 | -0.146 |
| MMDPCSVGVQLRTTNECHKTYYTRHTGFKTLQELSSNDMLLLQLRTGMTLSGNNTICFHHVKIYIDRFEDLQKSCCDPFNIHKKLAKKNLHVIDLDDATFLSAKFGRQLVPGWKLCPKCTQIINGSVDVDTEDRQKRKPESDGRTAKALRSLQFTNPGRQTEFAPETGKREKRRLTKNATAGSDRQVIPAKSKVYDSQGLLIFSGMDLCDCLDEDCLGCFYACPACGSTKCGAECRCDRKWLYEQIEIEGGEIIHNKHAG [ARL14EP] | -0.0185 | -0.0781 |
